{"source": "patent US10519238", "about": "(dated 2019)", "binders": {"B1": {"name": "anti-Gal1 monoclonal antibody 8A12.H9.H10 (antibody, V domains shown)", "VH": "QAYLQQSGAELVRPGASVRMSCKASGYTFTRYNMHWVKQTPRQGLEWIGRIYPGNGDTSYNQKFKGKATLTVDKSSSTAYMQLSSLTSEDSAVYFCTVWDYWGQGTTLTVSS", "VL": "not shown"}}, "key": {"[1]": {"target": "T1, recombinant murine galectin-1 (R&D Systems) (UniProt P16045 2-135)", "T1 chain": "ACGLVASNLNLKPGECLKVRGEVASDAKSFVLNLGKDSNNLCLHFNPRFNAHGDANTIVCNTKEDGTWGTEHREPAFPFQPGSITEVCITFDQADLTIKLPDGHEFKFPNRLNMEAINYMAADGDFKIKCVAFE", "assay": "SPR (BIAcore)"}, "[2]": {"target": "recombinant human galectin-1 (R&D Systems) (UniProt P09382 2-135)", "sequence (P09382 2-135)": "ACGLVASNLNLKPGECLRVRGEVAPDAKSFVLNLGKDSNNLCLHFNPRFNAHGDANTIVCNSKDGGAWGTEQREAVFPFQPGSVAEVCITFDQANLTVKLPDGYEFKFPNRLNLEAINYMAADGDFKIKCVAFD", "assay": "SPR (BIAcore)"}}}
{"binder": "B1", "values": [{"measurement": "Kd", "setting": "[1]", "result": 0.0266, "unit": "µM"}, {"measurement": "Kd", "setting": "[2]", "result": 0.071, "unit": "µM"}]}
